Laboratory results published in patent US20240247080A1, “GLP1/GIP/NPY2 RECEPTOR TRIPLE AGONISTS” (Boehringer Ingelheim International GmbH, priority 2022, published 2024).
Starred links: 1 amine or outer side, 2 acyl side, 3 side chain; linkers in the order of their positions; H or OH if unused. Non-standard residues stand in square brackets, D forms with d. Groups on a side chain read outwards from the residue. No end group written: not given here. *: point of attachment. C20 diacid = O=C(O)CCCCCCCCCCCCCCCCCCC(=O)*; γGlu = O=C(O)[C@H](CCC(=O)[*:2])N[*:1]; εLys = N[C@@H](CCCCN[*:1])C(=O)[*:2]; AEEA = NCCOCCOCC(=O)O; Aib = CC(C)(N)C(=O)O

T1: human neuropeptide Y2 receptor (human, UniProt P49146 1-381)
T1 sequence (looked up): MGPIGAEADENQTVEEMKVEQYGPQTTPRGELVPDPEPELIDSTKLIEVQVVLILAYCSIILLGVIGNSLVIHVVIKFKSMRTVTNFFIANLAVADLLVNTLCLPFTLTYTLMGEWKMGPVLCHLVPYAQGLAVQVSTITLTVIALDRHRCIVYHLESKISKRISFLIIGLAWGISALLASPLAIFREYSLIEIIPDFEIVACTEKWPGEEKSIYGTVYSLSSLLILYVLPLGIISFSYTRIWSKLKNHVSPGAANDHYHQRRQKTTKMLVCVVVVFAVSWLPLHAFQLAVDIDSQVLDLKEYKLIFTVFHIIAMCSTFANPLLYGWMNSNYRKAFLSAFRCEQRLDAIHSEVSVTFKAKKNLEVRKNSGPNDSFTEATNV

T2: human GIP receptor (human, UniProt P48546 22-466)
T2 sequence (looked up): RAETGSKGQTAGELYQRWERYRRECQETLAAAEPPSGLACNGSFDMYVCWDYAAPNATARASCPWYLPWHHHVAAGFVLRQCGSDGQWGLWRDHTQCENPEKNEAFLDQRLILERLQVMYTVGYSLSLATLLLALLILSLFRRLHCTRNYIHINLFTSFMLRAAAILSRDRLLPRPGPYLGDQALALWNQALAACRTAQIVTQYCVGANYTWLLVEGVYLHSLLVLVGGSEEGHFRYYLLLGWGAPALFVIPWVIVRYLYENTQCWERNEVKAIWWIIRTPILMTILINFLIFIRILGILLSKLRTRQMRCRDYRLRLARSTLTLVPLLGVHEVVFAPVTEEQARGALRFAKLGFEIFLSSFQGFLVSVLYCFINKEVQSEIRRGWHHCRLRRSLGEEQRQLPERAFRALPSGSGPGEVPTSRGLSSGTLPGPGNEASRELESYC


Key:
Assay in all cases: cell-based or functional assay
[1] = molecular target: T1, human neuropeptide Y2 receptor
human GIP receptor = molecular target: T2, human GIP receptor
human GLP-1 receptor = human GLP-1 receptor (human, UniProt P43220 24-463)

Row | Binder | EC50 CreLuc hNPY2R 0.5% hP [1] | EC50 CreLuc hNPY2R 100% hP [1] | EC50 CreLuc hGIPR 0.5% hP (human GIP receptor) | EC50 CreLuc hGIPR 100% hP (human GIP receptor) | EC50 CreLuc hGLP1R 0.5% hP (human GLP-1 receptor) | EC50 CreLuc hGLP1R 100% hP (human GLP-1 receptor)
1 | YXEGTFTSDYSIXLEKQAQXAFVEWLIKGGPSSAASLRHYYNWLTRQRY (Aib at 2, 13, 20; K28 side chain: C20DA-gGlu-gGlu-gGlu-gGlu-gGlu-gGlu-eLys; C-terminal NH2) [Compound 98] | 15.1 nM | 64.2 nM | 0.44 nM | 3.41 nM | 0.31 nM | 8.22 nM
2 | YXEGTFTSDYSIXLEAQAQXAFVEWLIKGGPSSGASLRHYYNWLTRQRY (Aib at 2, 13, 20; K28 side chain: C20DA-gGlu-gGlu-gGlu-gGlu-gGlu-gGlu-eLys; C-terminal NH2) [Compound 102] | 24.9 nM | 80.7 nM | 0.98 nM | 4.01 nM | 0.33 nM | 3.48 nM
3 | YXEGTFTSDYSIXLEKQAQXAFVEWLIKGGPSSGLSLRHYYNWLTRQRY (Aib at 2, 13, 20; K28 side chain: C20DA-gGlu-gGlu-gGlu-gGlu-gGlu-gGlu-eLys; C-terminal NH2) [Compound 107] | 16.7 nM | 58.5 nM | 0.27 nM | 0.99 nM | 0.13 nM | 1.88 nM
4 | YXEGTFTSDYSIXLEKQAQXAFVQWLIKGGPSEGVSLRHYYNWLTRQRY (Aib at 2, 13, 20; K28 side chain: C20DA-gGlu-gGlu-gGlu-gGlu-gGlu-gGlu-eLys; C-terminal NH2) [Compound 114] | 7.73 nM | 44.8 nM | 0.27 nM | 2.34 nM | 0.15 nM | 5.56 nM
5 | YXEGTFTSDYSIXLEKQAQXAFVQWLIKGGPSSGASLRHYYNWLTRQRY (Aib at 2, 13, 20; K28 side chain: C20DA-gGlu-gGlu-gGlu-gGlu-gGlu-OEG-OEG; C-terminal NH2) [Compound 112] | 8.05 nM | 27.6 nM | 0.19 nM | 0.83 nM | 0.06 nM | 1.7 nM
6 | YXEGTFTSDYSIXLEKQAQXAFVEWLIKGGPSSGASLRHYINWLTRQRY (Aib at 2, 13, 20; K28 side chain: C20DA-gGlu-gGlu-gGlu-gGlu-gGlu-gGlu-eLys; C-terminal NH2) [Compound 106] | 20.5 nM | 74.2 nM | 0.26 nM | 2.17 nM | 0.14 nM | 3.56 nM
7 | YXEGTFTSDYSIXLEGQAQXAFVEWLIKGGPSSGASLRHYYNWLTRQRY (Aib at 2, 13, 20; K28 side chain: C20DA-gGlu-gGlu-gGlu-gGlu-gGlu-gGlu-eLys; C-terminal NH2) [Compound 99] | 16.8 nM | 85.9 nM | 0.91 nM | 8.52 nM | 0.41 nM | 6.72 nM
8 | YXEGTFTSDYSIXLEKQAQXAFVQWLIKGGPSEPASLRHYYNWLTRQRY (Aib at 2, 13, 20; K28 side chain: C20DA-gGlu-gGlu-gGlu-gGlu-gGlu-OEG-OEG; C-terminal NH2) [Compound 111] | 13.4 nM | 36.8 nM | 0.55 nM | 1.96 nM | 0.12 nM | 5.32 nM
9 | YXEGTFTSDYSIXLEKQAQXAFVEWLIKGGPSSGASXRHYYNWLTRQRY (Aib at 2, 13, 20; Tle at 37; K28 side chain: C20DA-gGlu-gGlu-gGlu-gGlu-gGlu-gGlu-eLys; C-terminal NH2) [Compound 103] | 12 nM | 50.7 nM | 0.26 nM | 1.73 nM | 0.13 nM | 3.19 nM
10 | YXEGTFTSDYSILLEKQAQXAFVEWLIKGGPSSGASLRHYYNWLTRQRY (Aib at 2, 20; K28 side chain: C20DA-gGlu-Glu-gGlu-gGlu-gGlu-gGlu-eLys; C-terminal NH2) [Compound 104] | 13.4 nM | 50.7 nM | 0.06 nM | 0.6 nM | 0.09 nM | 2.06 nM
11 | Y[Aib]EGTFTSDYSI[Aib]LEEQAQ[Aib]AFVEWLIK([εLys-γGlu-γGlu-γGlu-γGlu-C20 diacid])GGPSSGASLRHYYNWLTRQRY-NH2 [Compound 97] | 14.9 nM | 70.4 nM | 0.14 nM | 0.95 nM | 0.15 nM | 3.08 nM
12 | Y[Aib]EGTFTSDYSI[Aib]LEKQAQ[Aib]AFVEWLLKGGPSSGASLRHYYNWLTRQRY-NH2 (not fully specified (residue 28)) [Compound 109] | 10.8 nM | 52.2 nM | 0.09 nM | 0.64 nM | 0.28 nM | 3.32 nM
13 | Y[Aib]EGTFTSDLSI[Aib]LEKQAQ[Aib]AFVQWLIKGGPSEGASLRHYYNWLTRQRY-NH2 (not fully specified (residue 28)) [Compound 113] | 19.5 nM | 49.9 nM | 0.56 nM | 3.84 nM | 0.19 nM | 3.72 nM
14 | Y[Aib]EGTFTSDYSI[Aib]LEEQAQ[Aib]AFVEWLIKGGPSSGASLRHYYNWLTRQRY-NH2 (not fully specified (residue 28)) [Compound 100] | 11.2 nM | 48 nM | 0.1 nM | 0.87 nM | 0.12 nM | 2.21 nM
15 | Y[Aib]EGTFTSDYSI[Aib]LEEQAQ[Aib]AFVEWLIKGGPSSGASLRHYYNWLTRQRY-NH2 (not fully specified (residue 28)) [Compound 105] | 10.4 nM | 69 nM | 0.2 nM | 0.87 nM | 0.14 nM | 1.66 nM
16 | Y[Aib]EGTFTSDYSI[Aib]LEEQAQ[Aib]AFVEWLIK([εLys-AEEA-γGlu-γGlu-γGlu-γGlu-γGlu-C20 diacid])GGPSSGASLRHYYNWLTRQRY-NH2 [Compound 110] | 17.5 nM | 42.5 nM | 0.15 nM | 1.14 nM | 0.15 nM | 1.53 nM
17 | Y[Aib]EGTFTSDYSI[Aib]LEKQAQ[Aib]AFVQWLIKGGPEEGASLRHYYNWLTRQRY-NH2 (not fully specified (residue 28)) [Compound 108] | 14.8 nM | 57.4 nM | 0.3 nM | 2.14 nM | 0.4 nM | 6.16 nM
18 | Y[Aib]EGTFTSDYSI[Aib]LEKQAQ[Aib]AFVQWLIKGGPSEPASLRHYYNWLTRQRY-NH2 (not fully specified (residue 28)) [Compound 101] | 12.1 nM | 26.5 nM | 0.15 nM | 1.43 nM | 0.1 nM | 2.5 nM
